Like-named read-outs stand apart in the source and are kept apart here.

This data set can be described thus: hydrolysis / release kinetics of linker-peptide conjugates in buffer at 37° C., LCMS analysis, half-life by curve fitting. It is filed as physicochemical. How it is done:
The hydrolysis kinetics of PEGylated linker-peptide conjugate 8 were studied at pH 7.4, 37° C. and pH 8.9, 37° C. Therefore, the starting material 8 was dissolved in two different buffers (60 mM phosphate, pH 7.4 and 100 mM borate pH 8.9, respectively). The resulting solutions were incubated in a water bath at 37° C. At given points in time samples were withdrawn, quenched and analyzed by LCMS. Curve fitting software was applied to determine the corresponding half-life of the release.
Release kinetics were setup and analyzed according to example 5 with additional buffers at 37° C.
Release kinetics were setup and analyzed according to example 5 with changed buffers.

Where [1] appears, read: sodium phosphate buffer, pH 7.4, 100 mM sodium phosphate, pH 7.4, 37° C., read-out: half-life (converted).

In general, half-life refers to the time needed for the level to fall by half in the phase considered. Consider `CN[C@@H](CCC(=O)NCCCC[C@H](NC(=O)[C@H](CO)NC(C)=O)C(=O)N[C@@H](Cc1ccc(O)cc1)C(=O)O)C(=O)NCCOCCOCCOCCOCCOCCOCCOCCOC` [Compound 25b], for which the half-life under setting [1] is 164 days.

Turning to `CN[C@@H](CCC(=O)NCCCC[C@H](NC(=O)[C@H](CO)NC(C)=O)C(=O)N[C@@H](Cc1ccc(O)cc1)C(=O)O)C(=O)N(C)CCOCCOCCOCCOCCOCCOCCOCCOC` [Compound 25c], the half-life is 149 days (HEPES buffer, pH 7.4, 60 mM HEPES, 130 mM NaCl, pH 7.4, 37° C., read-out: half-life (converted)); 92 days (sodium borate buffer, pH 9, 100 mM sodium borate, pH 9.0, 37° C., read-out: half-life (converted)); 129 days (sodium citrate buffer, pH 4, 100 mM sodium citrate, pH 4.0, 37° C., read-out: half-life (converted)); 207 days (sodium citrate buffer, pH 5.5, 100 mM sodium citrate, pH 5.5, 37° C., read-out: half-life (converted)); 339 days (sodium citrate buffer, pH 6.5, 30 mM sodium citrate, pH 6.5, 37° C., read-out: half-life (converted)); 336 days (sodium citrate buffer, pH 6.5, 100 mM sodium citrate, pH 6.5, 37° C., read-out: half-life (converted)). For the same molecule, the half-life is 35 days (sodium phosphate buffer, pH 6.5, 100 mM sodium phosphate, pH 6.5, 37° C., read-out: half-life (converted)); 55 days (sodium phosphate buffer, pH 7.4, 30 mM sodium phosphate, pH 7.4, 37° C., read-out: half-life (converted)); 36 days (sodium phosphate buffer, pH 7.4, 60 mM sodium phosphate, pH 7.4, 37° C., read-out: half-life (converted)); 55 days under setting [1]; 17 days (sodium phosphate buffer, pH 7.4, 200 mM sodium phosphate, pH 7.4, 37° C., read-out: half-life (converted)).

Consider `COCCOCCOCCOCCOCCOCCOCCOCCN(C)C(=O)[C@@H](N)CCC(=O)NCCCC[C@H](NC(=O)[C@H](CO)NC(C)=O)C(=O)N[C@@H](Cc1ccc(O)cc1)C(=O)O` [Compound 25a], for which the half-life under setting [1] is 26 days.

Consider `COCCOCCOCCOCCOCCOCCOCCOCCNC(=O)[C@@H](N)CCC(=O)NCCCC[C@H](NC(=O)[C@H](CO)NC(C)=O)C(=O)N[C@@H](Cc1ccc(O)cc1)C(=O)O` [Compound 8], for which the half-life is 220 days (borate buffer, pH 8.9, 100 mM borate, pH 8.9, 37° C., read-out: half-life of release of Ac-Ser-Lys-Tyr-OH (9) (converted)) and 56 days (phosphate buffer, pH 7.4, 60 mM phosphate, pH 7.4, 37° C., read-out: half-life of release of Ac-Ser-Lys-Tyr-OH (9) (converted)).

The values are drawn from patent US11298427B2, “Prodrugs comprising a pyroglutamate linker” (Ascendis Pharma A/S, priority 2015, dated 2022).
